Data set [1] deals with Escherichia coli recA^+ host cells (NR8051 and NR8052). In words: Survival of E. coli host cells expressing CDG or TDG. The following applies: for Survival of host cells after induction by IPTG: both NR8051 and NR8052, within 5 hrs; for Survival of recA^+ host cells carrying uninduced plasmid: data not shown. In kind it is cell-based.
For data set [2], the system named is E. coli ung^+ strain (NR8051). In words: Frequency of rifampicin resistant mutations, ung+ strain. Type of data set: cell-based. How it is done:
An overnight culture of E. coli strains NR8051 and NR8052 (both recA^+, provided by Tomas Kunkel of National Institute of Environmental Health, USA) containing plasmids pTrc99A, pTUNGΔ84, UNGΔ84Tyr147Ala and UNGΔ84Asn204Asp were prepared as described in Example 1 and grown in LB-medium with ampicillin (100 μg/ml) at 30° C. The culture was then diluted 1:20 in fresh medium and cultured for 5 hours at 37° C. Induced culture contained 1 mM IPTG in the LB-medium. To determine the number of rifampicin resistant bacteria, 100 μl of the culture were mixed with 3 ml top agarose and poured on LB plates containing 100 μg/ml rifampicin and incubated overnight at 37° C. Colonies were counted and the number of rifampicin resistant colonies per 10^8 viable cells was calculated.

Data set [3] has as its system [^3H]thymine-labelled DNA. In words: Release of [3H]thymine from ds or ss labelled DNA. Type of data set: biochemical. Particulars: for T-ds, pmol excised per min per mg protein: double-stranded thymine DNA; for T-ds, pmol excised per min per mg protein / T-ss, pmol excised per min per mg protein: 10 μM, 10 min, 0 = below detection limit; for T-ss, pmol excised per min per mg protein: single-stranded thymine DNA. How it is done: (§1) To test enzymatic substrate specificities, 250 ng purified human “wild type” UDG (UNGΔ84), UNGΔ84Tyr147Ala or UNGΔ84Asn204Asp, were mixed with 200 ng ds- or ss-[^3H]cytosine-labelled DNA (150 mCi/mmol), or ds- or ss-[^3H]thymine-labelled DNA (100 mCi/mmol) in 10 mM NaCl, 20 mM Tris-HCl (pH 7.5), 1 mM EDTA, 1 mM dithiothreitol and 0.5 mg/ml bovine serum albumin (final concentrations) in 20 μl separate reactions. The final concentrations of the [^3H]cytosine-DNA (C) and [^3H]thymine-DNA (T) substrates were 6.5 μM and 10 μM, respectively. Release of radioactivity as a function of time was measured at 37° C. These conditions are later referred to as standard conditions. Substrate synthesis and processing of samples for scintillation counting were as described in Krokan and Wittwer (1981) Nucl. Acids Res., 9: 2599-2613. Single-stranded substrate was generated by boiling double-stranded substrate for 10 min, followed by rapid cooling on ice.
(§2) For measuring release of uracil from double-stranded (U-ds) or single-stranded (U-ss) DNA the various mutant enzymes (prepared as described in Example 1 and by analogous site-directed mutagenesis methods and identical expression and purification methods) were incubated with 200 ng ds- or ss-[^3H]dUMP-labelled DNA (500 mCi/mmol, 2 μM final concentration) in 20 μl separate reactions for 10 min under standard conditions as described in Example 1. For measuring release of [^3H]cytosine or [^3H]thymine, assays were performed as described in Example 1 using an incubation time of 10 min. Uracil inhibition was analysed by adding 5 mM uracil (final concentration) to a standard U-ds assay. 0 activity indicates activity below detection limit (10 pmol per mg protein per min) with 100 ng enzyme and 200 ng DNA substrate at standard conditions.

Data set [4] deals with [^3H]dUMP-labelled DNA. In words: Uracil inhibition in standard U-ds assay. The following applies: 5 mM uracil added to standard U-ds assay. Type of data set: biochemical. As to the method:
as §2

In data set [5] the test system is [^3H]dUMP-labelled DNA. In words: Kinetic parameters on uracil substrate. In kind it is biochemical. Particulars: for Kcat: calculated from Vmax assuming Mr=25000. How it is done:
The final concentrations of the [^3H]cytosine-DNA (C) and [^3H]thymine-DNA (T) substrates were 6.5 μM and 10 μM, respectively. Release of radioactivity as a function of time was measured at 37° C. These conditions are later referred to as standard conditions. Substrate synthesis and processing of samples for scintillation counting were as described in Krokan and Wittwer (1981) Nucl. Acids Res., 9: 2599-2613. Single-stranded substrate was generated by boiling double-stranded substrate for 10 min, followed by rapid cooling on ice.
(§3) The kinetic parameters were determined using six different substrate concentrations to obtain the Km and Vmax values. Duplicate samples were incubated for 20 min using standard assay buffer conditions and substrates as specified. Km and Vmax were calculated using the computer program Enzpack, version 3.0 after the method of Wilkinson (1961) Biochem. J., 80: 324-332.

For data set [6], the system named is [^3H]dUMP-labelled DNA. In words: Release of uracil from ds or ss [3H]dUMP-labelled DNA. Type of data set: biochemical. The following applies: for U-ds, pmol excised per min per mg protein: double-stranded uracil DNA, 0 = below detection limit (10 pmol per mg protein per min); for U-ds, pmol excised per min per mg protein / U-ss, pmol excised per min per mg protein: 2 μM, 10 min, 37° C.; for U-ss, pmol excised per min per mg protein: single-stranded uracil DNA, 0 = below detection limit. How it is done:
as §1, §2

In data set [7] the test system is [^3H]cytosine-labelled DNA. In words: Release of [3H]cytosine from ds or ss labelled DNA. In kind it is biochemical. Particulars: for C-ds, pmol excised per min per mg protein: double-stranded cytosine DNA; for C-ds, pmol excised per min per mg protein / C-ss, pmol excised per min per mg protein: 6.5 μM, 10 min, 0 = below detection limit; for C-ss, pmol excised per min per mg protein: single-stranded cytosine DNA. As to the method: as §1, §2

Data set [8] deals with Escherichia coli DH5α (recA^−). In words: Cytotoxicity in recA- background. In kind it is cell-based. The following applies: E. coli DH5α, even without induction; data not shown.
The test system of data set [9] is [^3H]cytosine-labelled DNA. In words: Kinetic parameters on cytosine substrate. Type of data set: biochemical. The following applies: for Kcat: calculated from Vmax assuming Mr=25000. As to the method: as §1, §3
The test system of data set [10] is [^3H]thymine-labelled DNA. In words: Kinetic parameters on thymine substrate. In kind it is biochemical. Particulars: for Kcat: calculated from Vmax assuming Mr=25000. How it is done: as §1, §3

B1: Asn204Asp: human UDG mutant, codon 204 Asn changed to Asp; cytosine-DNA glycosylase (CDG) (protein)
chain: MGVFCLGPWGLGRKLRTPGKGPLQLLSRLCGDHLQAIPAKKAPAGQEEPGTPPSSPLSAEQLDRIQRNKAAALLRLAARNVPVGFGESWKKHLSGEFGKPYFIKLMGFVAEERKHYTVYPPPHQVFTWTQMCDIKDVKVVILGQDPYHGPNQAHGLCFSVQRPVPPPPSLENIYKELSTDIEDFVHPGHGDLSGWAKQGVLLLDAVLTVRAHQANSHKERGWEQFTDAVVSWLNQNSNGLVFLLWGSYAQKKGSAIDRKRHHVLQTAHPSPLSVYRGFFGCRHFSKTNELLQKSGKKPIDWKEL
In the case of B1, in data set [1], the “Survival of host cells after induction by IPTG” value was “less than 50%” and the “Survival of recA^+ host cells carrying uninduced plasmid” value was “equal to that of the parental cell carrying plasmid pTrc99A”. The “Factor of increase of mutation frequency compared to host cells carrying parental plasmid pTrc99A” value (from here on “Factor of increase of mutation frequency”) in data set [2] (E. coli ung^+ cells, uninduced) is recorded as 8.6. The “Factor of increase of mutation frequency” value in [2] (induced ung^+ cells) was “approximately 8.9”. Moreover, in data set [3], the “T-ds, pmol excised per min per mg protein” value (“T-ds, pmol excised per min” for short) is 0 pmol excised per min per mg protein and the “T-ss, pmol excised per min per mg protein” value (“T-ss, pmol excised per min” for short) is on record as 0 pmol excised per min per mg protein. In data set [4], the “Inhibition 5 mM Uracil” value amounted to 0%. In data set [5] (U-ds substrate), the Michaelis-Menten constant (Km) is 2.4 µM and the Kcat is 0.02 s⁻¹. For the same molecule, in data set [5] (U-ss substrate), the Km is 2 µM and the Kcat was 0.25 s⁻¹. Moreover, in data set [6], the “U-ds, pmol excised per min per mg protein” value (“U-ds, pmol excised per min” for short) is 1.7 × 10^4 pmol excised per min per mg protein and the “U-ss, pmol excised per min per mg protein” value (“U-ss, pmol excised per min” for short) was 1.6 × 10^5 pmol excised per min per mg protein. The “UDG activity remaining compared with wild type” value in [6] (uracil release, ds and ss) was 0.04-0.16%. Besides, the “C-ds, pmol excised per min per mg protein” value (“C-ds, pmol excised per min” for short) in data set [7] is reported as 3.0 × 10^2 pmol excised per min per mg protein. Further, the “Preference for single stranded substrate” value in data set [7] (ss versus ds substrate) was 10 fold. Further, the “Cytotoxicity in recA^− background” value in data set [8] is “highly cytotoxic”. Moreover, in data set [9] (C-ds substrate), the Michaelis constant (Km) was 35 µM and the Kcat is 0.002 s⁻¹. In addition, in data set [9] (C-ss substrate), the Michaelis constant (Km) was 5.3 µM and the Kcat is 0.0065 s⁻¹.

B2: Tyr147Ala (protein)
chain: MGVFCLGPWGLGRKLRTPGKGPLQLLSRLCGDHLQAIPAKKAPAGQEEPGTPPSSPLSAEQLDRIQRNKAAALLRLAARNVPVGFGESWKKHLSGEFGKPYFIKLMGFVAEERKHYTVYPPPHQVFTWTQMCDIKDVKVVILGQDPAHGPNQAHGLCFSVQRPVPPPPSLENIYKELSTDIEDFVHPGHGDLSGWAKQGVLLLNAVLTVRAHQANSHKERGWEQFTDAVVSWLNQNSNGLVFLLWGSYAQKKGSAIDRKRHHVLQTAHPSPLSVYRGFFGCRHFSKTNELLQKSGKKPIDWKEL
As for B2, in data set [1], the “Survival of host cells after induction by IPTG” value is on record as below 10% and the “Survival of recA^+ host cells carrying uninduced plasmid” value is on record as “equal to that of the parental cell carrying plasmid pTrc99A”. In addition, the “Factor of increase of mutation frequency” value in data set [2] (E. coli ung^+ cells, uninduced) came out at 39. The “Mutation frequency in vivo relative to CDG activity” value in data set [2] (Escherichia coli) is listed as 10 fold. The “Factor of increase of mutation frequency” value in [2] (induced ung^+ cells) is around 94.4. In data set [3], the “T-ds, pmol excised per min” value is reported as 1.3 × 10^3 pmol excised per min per mg protein and the “T-ss, pmol excised per min” value was 7.5 × 10^2 pmol excised per min per mg protein. Besides, the “Preference for single stranded substrate” value in [3] (ss versus ds substrate) is reported as “decreased preference”. The “Inhibition 5 mM Uracil” value in data set [4] is reported as 0%. In data set [10] (T-ds substrate), the Km came out at 6 µM and the Kcat is 0.001 s⁻¹. In [10] (T-ss substrate), the Michaelis constant (Km) stood at 1.4 µM and the Kcat was 0.00033 s⁻¹. Moreover, in [5] (U-ds substrate), the Michaelis constant (Km) worked out at 3.5 µM and the Kcat is 0.0167 s⁻¹. In data set [5] (U-ss substrate), the Michaelis constant (Km) is 0.3 µM and the Kcat is 0.01 s⁻¹. In addition, in data set [6], the “U-ds, pmol excised per min” value is given as 2.2 × 10^4 pmol excised per min per mg protein and the “U-ss, pmol excised per min” value is recorded as 2.2 × 10^4 pmol excised per min per mg protein. Also, in data set [7], the “C-ds, pmol excised per min” value is given as 0 pmol excised per min per mg protein and the “C-ss, pmol excised per min per mg protein” value is recorded as 0 pmol excised per min per mg protein. The “Cytotoxicity in recA^− background” value in data set [8] is “highly cytotoxic”.

B3: Asn204Gln: human UDG (UNGΔ84) mutant with Asn204 replaced by Gln (protein)
chain: MGVFCLGPWGLGRKLRTPGKGPLQLLSRLCGDHLQAIPAKKAPAGQEEPGTPPSSPLSAEQLDRIQRNKAAALLRLAARNVPVGFGESWKKHLSGEFGKPYFIKLMGFVAEERKHYTVYPPPHQVFTWTQMCDIKDVKVVILGQDPYHGPNQAHGLCFSVQRPVPPPPSLENIYKELSTDIEDFVHPGHGDLSGWAKQGVLLLQAVLTVRAHQANSHKERGWEQFTDAVVSWLNQNSNGLVFLLWGSYAQKKGSAIDRKRHHVLQTAHPSPLSVYRGFFGCRHFSKTNELLQKSGKKPIDWKEL
For the molecule B3, in [3], the “T-ds, pmol excised per min” value is 0 pmol excised per min per mg protein and the “T-ss, pmol excised per min” value is reported as 0 pmol excised per min per mg protein. The “Inhibition 5 mM Uracil” value in data set [4] is 70%. In addition, in [5] (U-ds substrate), the Michaelis-Menten constant (Km) was 0.4 µM and the Kcat was 1.1 s⁻¹. In addition, in data set [5] (U-ss substrate), the Km amounted to 0.23 µM and the Kcat was 1.48 s⁻¹. In data set [6], the “U-ds, pmol excised per min” value is reported as 1.5 × 10^6 pmol excised per min per mg protein and the “U-ss, pmol excised per min” value is 2.2 × 10^6 pmol excised per min per mg protein. In data set [7], the “C-ds, pmol excised per min” value is reported as 0 pmol excised per min per mg protein and the “C-ss, pmol excised per min per mg protein” value is reported as 0 pmol excised per min per mg protein.

What is called Km is the concentration of substrate that gives half-maximal velocity.
